Two molecules from publication doi:10.1101/2023.09.08.556349 (bioRxiv, 2023) can be followed below.

The target of assay [1] is SARS-CoV-2 RBD-SD1 (Wu), S residues 319 to 591 (SARS-CoV-2 Wuhan-Hu-1, UniProt P0DTC2). The assay is described as follows: ELISA. (ELISA stands for enzyme-linked immunosorbent assay.)
Assay [2] has as its target SARS-CoV-2 Spike S1-His Tag (HPLC-verified), NR-53798 (SARS-CoV-2 Wuhan-Hu-1, UniProt P0DTC2). The assay is described as follows: ELISA.

B1: 3548-S-2 (antibody, V domains shown)
VH: QVQLVESGPGLVKPSQTLSLTCTVSGGSISSGGYYWSWIRQHPGRGLERIGYIYYSGSTYYNPSLKSRVTISVDTSKDQFSLKLTSVTAADSAVYYCARGSRNDLRDFDYWGQGTLVTVSS
VL: QSVMTQPPSVSGAPGQRVTISCSGSSSNIGNNYVSWYQQLPGTAPKLLIYGNSNRSSRVPDRFSGSKSGTSASLAITGLQAEDEADYYCQSYNSSLSGLVVFGGGTQLTAL
For the molecule B1, the binding result in assay [1] was “binds”.

B2: 3548-RBD-15 (antibody, V domains shown)
VH: QVQLQESGPGLVKPSETLSLTCTVSGGSVSSYYWSWIRQPPGKGLEWIGYIYYSGSTNYNPSLKSRVTISVDTSKNQFSLKLSSVTAADTAVYYCAKGIYSSSSYWGDPWGQGTLVTVSS
VL: not shown
As for B2, the binding result in assay [2] and in assay [1] was “binds” throughout.
